According to the supplement of paper PMC9732359:
± gives the uncertainty stated by the source.

Assay: protein stability index of a GFP-peptide fusion (yeast GPS) (PSI 1-4); higher = more stable; sorted into four equal gates, so the index is relative within each strain
Procedure, shortened: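 Each library plasmid carries Cherry plus GFP with a tiled 17-residue yeast protein peptide fused downstream, and the pooled library was carried in yeast. Mid-log cultures in leucine-free medium were sorted into four equal gates by GFP/Cherry ratio. Reads from Illumina sequencing of PCR-amplified plasmids from each gate were assigned to strains by barcodes. Per peptide, the protein stability index was computed as the summed products of gate read frequency and gate number.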

Row | Sequence | protein stability index (doa10∆) | protein stability index (pdr5∆) | protein stability index (san1∆) | protein stability index (ubr1∆)
1 | LVEARSLGHQTSLITAV [MTR3] | 2.69 ± 0.08 | 1.97 ± 0.067 | 2.79 ± 0.082 | 1.25 ± 0.064
2 | LRKQYSAIDEEIEELID [SMC3] |  | 2.98 ± 0.2 |  | 3.26 ± 0.2
3 | QIISGNRVPDGFQDRSL [RPO31] | 3.17 ± 0.13 | 3.13 ± 0.13 | 3.06 ± 0.08 | 3.38 ± 0.2
4 | KIAERSLLLKNYLNDMH [SKP1] | 2.55 ± 0.12 | 2.54 ± 0.07 | 1.81 ± 0.17 | 1.78 ± 0.067
5 | YRLDIIESALKSKLDQD [RPN2] | 1.66 ± 0.093 | 1.96 ± 0.12 | 1.99 ± 0.16 | 1.94 ± 0.19
6 | RNDSTVNDSVISAPSME [BRN1] | 2.71 ± 0.085 | 2.95 ± 0.083 | 2.78 ± 0.061 | 2.96 ± 0.061
7 | QLNEKLVGRLRKCETQK [YCS4] | 2.03 ± 0.086 | 1.44 ± 0.062 | 2.22 ± 0.1 | 2 ± 0.061
8 | DTYPYLTGEWSTKFDYP [FAS1] | 3.19 ± 0.073 | 2.96 ± 0.079 | 2.85 ± 0.063 | 2.94 ± 0.057
9 | FSHPAHQQRMSRTAADI [YCG1] | 2.01 ± 0.07 | 2.15 ± 0.093 | 2.4 ± 0.074 | 2.13 ± 0.06
10 | SSEQFNVWDWNNWTSAT [GAL11] | 3.08 ± 0.1 | 3.17 ± 0.095 | 3.14 ± 0.067 | 3.1 ± 0.083
11 | FNAPATGNGTTTTSNTS [YOR098C/NUP1] | 2.44 ± 0.034 | 2.83 ± 0.035 | 2.8 ± 0.035 | 2.836 ± 0.027
12 | EILNECHDELKALPMLE [MED4] | 2.52 ± 0.11 | 2.95 ± 0.16 | 2.59 ± 0.083 | 3.09 ± 0.088
13 | YSSYIYKVLKQTHPDTG [HTB1] | 2.58 ± 0.065 | 2.05 ± 0.051 | 1.7 ± 0.074 | 1.81 ± 0.045
14 | LEDDSLLSYPIKLDRWL [RPN12] | 3.12 ± 0.072 | 2.87 ± 0.057 | 2.99 ± 0.072 | 2.78 ± 0.063
15 | QQRFQALQQQQQQQQNQ [SWI1] | 2.05 ± 0.05 | 2.07 ± 0.046 | 2.25 ± 0.052 | 2.04 ± 0.059
16 | IAQSKKKNNKIKESSKK [SRP21] | 3.09 ± 0.1 | 2.96 ± 0.087 | 3.01 ± 0.072 | 3.16 ± 0.063
17 | DNSPSEDFMDIPKPRTA [SNF2] | 2.57 ± 0.16 | 2.83 ± 0.11 |  | 2.77 ± 0.19
18 | KVGIWPYFDYIFNDILA [YJL039C/NUP192] | 1.67 ± 0.11 | 1.96 ± 0.071 | 1.75 ± 0.17 | 1.43 ± 0.061
19 | EVDYEDKDNPVDSRNET [SRB4] | 3.46 ± 0.19 | 2.99 ± 0.17 | 3.47 ± 0.12 | 3.33 ± 0.25
20 | WPQSKNCEYEDPPNEGD [RPB3] | 3.45 ± 0.25 |  |  | 3.2 ± 0.14
21 | QLIFRQQTGLVDAITRC [SNU114] | 2.97 ± 0.087 | 2.69 ± 0.058 | 3.04 ± 0.052 | 2.47 ± 0.041
22 | GENDDDTLDGDLMDDMS [RPN3] | 2.73 ± 0.17 | 2.7 ± 0.075 | 2.11 ± 0.12 | 2.15 ± 0.1
23 | RQCFREKANDIGFHKYR [RPS29B] | 3.34 ± 0.15 | 3.35 ± 0.13 | 2.96 ± 0.1 | 2.88 ± 0.1
24 | KDNAIYNGFIDIFSNLS [YCS4] | 2.85 ± 0.076 | 2.72 ± 0.081 | 2.87 ± 0.07 | 2.77 ± 0.047
25 | NDDELNKLLGNVTIAQG [HTA1] | 3.31 ± 0.12 | 3.5 ± 0.12 | 3.48 ± 0.064 | 3.34 ± 0.078
26 | ASVGDILKTLERSICAL [YML031W/NDC1] | 2.12 ± 0.066 | 2.94 ± 0.088 | 2.79 ± 0.086 | 2.64 ± 0.058

Row | Sequence | protein stability index (doa10∆) | protein stability index (pdr5∆) | protein stability index (san1∆) | protein stability index (ubr1∆)
27 | RSRMLPTITLDDVYRPA [SNF5] | 3.12 ± 0.081 | 3.43 ± 0.085 | 3.04 ± 0.075 | 3.06 ± 0.077
28 | YGILSIDDLIHEIITVG [RPL7A] | 2.36 ± 0.079 | 2.37 ± 0.1 | 2.58 ± 0.11 | 1.56 ± 0.061
29 | GQLPQLPKLNLPKYQTI [SNF5] | 2.78 ± 0.062 | 2.67 ± 0.055 | 2.57 ± 0.074 | 2.71 ± 0.047
30 | TRYMFQRDFRKHGAVHL [RPL21A] | 2.42 ± 0.062 | 2.27 ± 0.069 | 2.33 ± 0.084 | 2.44 ± 0.092
31 | VPNYEVSEKAFLLTQSK [RPN7] | 3.17 ± 0.18 | 3.47 ± 0.24 |  | 2.75 ± 0.14
32 | QGIFKNSSNYFGELQFA [AAR2] | 2.36 ± 0.14 | 2.6 ± 0.1 | 2.41 ± 0.12 | 2.11 ± 0.12
33 | SILPTRDDLFVRNLQGI [NUT1] | 1.69 ± 0.094 | 2.19 ± 0.11 | 2.05 ± 0.15 | 1.56 ± 0.058
34 | FLTVSKLWAEIIVKILY [GRR1] | 1.55 ± 0.046 | 1.97 ± 0.058 | 1.53 ± 0.087 | 1.37 ± 0.048
35 | RSEKSTTNAQTKKLIQK [SRP54] |  | 2.82 ± 0.13 | 2.77 ± 0.15 | 2.94 ± 0.098
36 | GISRDIKALQDSLFKDV [YML103C/NUP188] | 2.19 ± 0.077 | 1.99 ± 0.063 | 2.07 ± 0.089 | 1.77 ± 0.042
37 | KTYALESINNVVDQLWS [RPN2] | 2.82 ± 0.066 | 2.9 ± 0.059 | 2.7 ± 0.07 | 2.6 ± 0.055
38 | FHSTYLMNGVKPFKSFL [FAS1] | 2.65 ± 0.12 | 2.55 ± 0.078 | 3.33 ± 0.15 | 2.87 ± 0.068
39 | EVYEALKEVLYNDSATS [RPN2] | 3.34 ± 0.18 | 3.45 ± 0.15 |  | 3.46 ± 0.08
40 | TGHSQGLVTAVAIAETD [FAS1] | 3.25 ± 0.14 | 3.44 ± 0.078 | 3.29 ± 0.098 | 3.25 ± 0.095
41 | GSEIAISSLGYRSHIFA [SWI3] | 2.63 ± 0.057 | 2.27 ± 0.048 | 2.45 ± 0.051 | 2.34 ± 0.045
42 | YKKIPLLGPTLEDHTPP [QCR10] | 2.34 ± 0.05 | 2.59 ± 0.057 | 2.42 ± 0.083 | 2.76 ± 0.029
43 | ENSAVAAKEGLALSSNI [COR1] | 1.84 ± 0.065 | 2.66 ± 0.064 | 2.49 ± 0.084 | 2.17 ± 0.053
44 | IWKESLIELSGGQRSLI [SMC2] | 1.75 ± 0.14 | 2.12 ± 0.091 | 1.98 ± 0.16 | 1.56 ± 0.12
45 | MQENDKINQERLERRIN [CSI1] | 1.62 ± 0.065 | 1.92 ± 0.062 | 1.26 ± 0.1 | 1.27 ± 0.044
46 | DEQDDDNVNSTTGSIFE [BRN1] | 2.88 ± 0.16 | 2.92 ± 0.13 | 2.7 ± 0.15 | 2.85 ± 0.066
47 | IFEISLQRKDYTSIVQC [YML103C/NUP188] | 1.76 ± 0.051 | 1.75 ± 0.048 | 2.05 ± 0.12 | 1.88 ± 0.052
48 | ITVHAPLLPIVEELMKK [SNU114] | 2.38 ± 0.068 | 2.55 ± 0.054 | 2.52 ± 0.074 | 2.7 ± 0.055
49 | TVKRGAAGIWTCSCCKK [RPL43A] | 1.68 ± 0.085 | 1.74 ± 0.058 | 1.74 ± 0.11 | 1.94 ± 0.062
50 | ETQYFWKLLNQLVLRGL [YJR042W/NUP85] | 2.18 ± 0.19 | 1.26 ± 0.074 | 1.26 ± 0.11 | 1.16 ± 0.1
51 | LMNGVKPFKSFLKKNII [FAS1] |  |  | 3.36 ± 0.16 | 3.27 ± 0.087
52 | TYEMRIHKRYIDLEAPV [RPS20] | 2.17 ± 0.16 | 2.71 ± 0.15 |  | 2.51 ± 0.28

Row | Sequence | protein stability index (doa10∆) | protein stability index (pdr5∆) | protein stability index (san1∆) | protein stability index (ubr1∆)
53 | LGRDYPIEVDEELLQLF [IRR1] | 2.19 ± 0.24 | 1.99 ± 0.24 |  | 1.81 ± 0.24
54 | TDTSTTATAATNGNNAG [MED6] | 3.2 ± 0.29 | 3.06 ± 0.13 | 3.39 ± 0.091 | 3.29 ± 0.096
55 | SSAKRSKNTAVSKVQKR [SRP72] | 2.25 ± 0.11 | 2.77 ± 0.11 | 2.09 ± 0.11 | 2.32 ± 0.069
56 | TVYSSEQYIQELDKRED [SMC3] | 2.76 ± 0.18 | 3.26 ± 0.24 |  | 3.47 ± 0.25
57 | KQDCVDWFTYSYFYRRI [BRR2] | 1.69 ± 0.036 | 1.32 ± 0.032 | 1.51 ± 0.053 | 1.41 ± 0.029
58 | ISIYNMLPPKSVKFTHI [SSN2] | 1.64 ± 0.069 | 1.76 ± 0.057 | 2.13 ± 0.066 | 2.29 ± 0.034
59 | TVINEQQREAVRQLYKG [RPL35A] | 3.44 ± 0.094 | 3.43 ± 0.14 | 3.13 ± 0.12 | 3.31 ± 0.079
60 | GDANNRWDKEEYQSLMS [SMC1] | 3.36 ± 0.21 | 3.03 ± 0.29 | 3.05 ± 0.28 | 3.21 ± 0.073
61 | QNFAEFMTKLLEVANDL [IRR1] | 2.06 ± 0.11 | 2.29 ± 0.097 | 3.13 ± 0.085 | 2.65 ± 0.14
62 | SLTEKFSQTVADNNDLQ [ECM29] | 2.48 ± 0.049 | 2.71 ± 0.056 | 2.64 ± 0.068 | 2.35 ± 0.048
63 | LAMEAILNELEVFIGRV [YJR042W/NUP85] | 2.59 ± 0.12 | 2.93 ± 0.14 | 2.76 ± 0.15 | 2.51 ± 0.06
64 | ISTAKAWGALITTFVKR [YML103C/NUP188] | 1.82 ± 0.051 | 2.22 ± 0.051 | 1.64 ± 0.063 | 1.66 ± 0.058
65 | SKDELREKLAEVYKAEK [RPS24A] | 3.51 ± 0.16 | 3.48 ± 0.15 | 3.59 ± 0.08 | 3.56 ± 0.16
66 | QFNAITGLNGSGKSNIL [SMC2] | 3.31 ± 0.17 | 2.99 ± 0.13 | 3.18 ± 0.099 | 3.34 ± 0.067
67 | IAYGASQLLLERLMISS [RET1] | 1.75 ± 0.092 | 1.94 ± 0.073 | 2 ± 0.16 | 1.39 ± 0.069
68 | ITVRYWLNGKMDSKGKI [RGR1] | 3.27 ± 0.14 | 3.51 ± 0.15 | 3.31 ± 0.23 | 
69 | QQQQAAALANANNNINS [SWI1] | 2.51 ± 0.058 | 2.3 ± 0.053 | 2.46 ± 0.047 | 2.65 ± 0.06
70 | KLRDHEPDLESQISKAE [SMC4] | 2.07 ± 0.13 | 1.31 ± 0.21 | 3.16 ± 0.16 | 
71 | LDKDSSQSSAAAGASVD [RPN6] | 3.47 ± 0.11 | 3.42 ± 0.078 | 3.02 ± 0.075 | 3.2 ± 0.086
72 | SSLIKAGLDKGISINNM [RPO31] | 2.65 ± 0.064 | 2.7 ± 0.079 | 2.76 ± 0.066 | 2.95 ± 0.058
73 | PKSSPLKKNNYNSFPHS [SIR4] | 2.79 ± 0.099 | 3.08 ± 0.076 | 3.07 ± 0.046 | 3.06 ± 0.039
74 | ICQIISSTITGDVVLAA [RPL5] | 2.84 ± 0.063 | 1.89 ± 0.058 | 2.31 ± 0.069 | 3.06 ± 0.099
75 | KNGVIPEESKGSFKYIT [SWP82] | 3.03 ± 0.05 | 3.09 ± 0.067 | 2.96 ± 0.047 | 3.18 ± 0.052
76 | ANIFRIHSKSMSVERGI [RPT1] | 3.16 ± 0.11 | 3.01 ± 0.14 | 3.18 ± 0.13 | 2.9 ± 0.13
